From the supplement of paper PMC10724198
± gives the standard deviation of the averaged measurements.

System: Saccharomyces cerevisiae
Experiment: protein stability index of tFT-peptide fusion (C-terminal peptide) (PSI (0-1 scale)); higher = more stable (slower turnover)
Conditions: temperature: 30 C
Description: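 MPS profiling in S. cerevisiae of the yeast C-terminome library: the last 12 aa of each annotated ORF are fused to the C-terminus of a sfGFP-mCherry timer, after a GGGS linker. Cells are FACS-sorted into 8 mCherry/sfGFP bins and deep-sequenced. PSI runs from 0 (unstable) to 1 (stable); wild type and das1Δ backgrounds, two technical replicates each.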

[1] = genetic background: das1 deletion

Sequence | protein stability index [1] | protein stability index (genetic background: wild type)
YTSWQTIKMWSQ [AVT3 C-terminal 12 aa] | 0.658 ± 0.007 | 0.654 ± 0.029
VVPVLMGNMKVA [YEL073C C-terminal 12 aa] | 0.69 ± 0.01 | 0.634 ± 0.053
ANARLESESKDP [UNG1 C-terminal 12 aa] | 0.6954 ± 0.0034 | 0.667 ± 0.033
ILEYQKRRSFIK [IRC3 C-terminal 12 aa] | 0.7238 ± 0.0049 | 0.652 ± 0.021
GYDTVASLDFWG [ROM2 C-terminal 12 aa] | 0.742 ± 0.018 | 0.761 ± 0.047
DASALIEIQEKC [SST2 C-terminal 12 aa] | 0.669 ± 0.021 | 0.695 ± 0.059
EEDPEYFQHALQ [GRX4 C-terminal 12 aa] | 0.71049 ± 4e-05 | 0.715 ± 0.049
WKKFLKFSKNSD [HXT13 C-terminal 12 aa] | 0.7176 ± 0.0052 | 0.685 ± 0.039
FTVKANSQSESA [GRX7 C-terminal 12 aa] | 0.6758 ± 0.0034 | 0.694 ± 0.027
GLQVMNEMKQRW [ECM25 C-terminal 12 aa] | 0.7091 ± 0.0069 | 0.724 ± 0.053
KNNYSSRNSNIY [MSS116 C-terminal 12 aa] | 0.713 ± 0.0098 | 0.711 ± 0.028
LVYRDGEISELK [PAT1 C-terminal 12 aa] | 0.7114 ± 0.0045 | 0.703 ± 0.13
TLGEVINELNNK [VAM6 C-terminal 12 aa] | 0.7226 ± 0.0022 | 0.676 ± 0.011
DALHKMDKNVLE [YOL029C C-terminal 12 aa] | 0.696 ± 0.028 | 0.728 ± 0.076
INQEAYQAFLRR [GUF1 C-terminal 12 aa] | 0.7022 ± 0.0031 | 0.7039 ± 0.0062
RDLNKLRSFQNF [YFL012W C-terminal 12 aa] | 0.724 ± 0.024 | 0.4914 ± 0.0021
DVIDTIMSKQEP [UGA4 C-terminal 12 aa] | 0.698 ± 0.02 | 0.6826 ± 0.0027
EDPDFLQHALQS [GRX3 C-terminal 12 aa] | 0.707 ± 0.013 | 0.704 ± 0.013
FDELFISTEVEL [TCA17 C-terminal 12 aa] | 0.718 ± 0.018 | 0.6851 ± 0.0011
ELPSYKKTSKQN [PSG1 C-terminal 12 aa] | 0.722 ± 0.03 | 0.701 ± 0.077
ELFTILHDLTAA [TPS3 C-terminal 12 aa] | 0.718 ± 0.086 | 0.6612 ± 0.005

Sequence | protein stability index [1] | protein stability index (genetic background: wild type)
EQDAILLKKHIS [NAT5 C-terminal 12 aa] | 0.714 ± 0.033 | 0.3 ± 0.029
ELSMIMEHFSQQ [RPS12 C-terminal 12 aa] | 0.72 ± 0.02 | 0.7056 ± 0.0036
TDVVLCARLADD [RIB7 C-terminal 12 aa] | 0.676 ± 0.014 | 0.7 ± 0.038
LKHFVSAPSSSL [MRK1 C-terminal 12 aa] | 0.699 ± 0.011 | 0.656 ± 0.0095
VIGEKGITDSSD [DMC1 C-terminal 12 aa] | 0.733 ± 0.023 | 0.721 ± 0.018
PREGRLDKTPTY [KAR9 C-terminal 12 aa] | 0.706 ± 0.008 | 0.704 ± 0.036
VACCGCNMTVAY [YIL058W C-terminal 12 aa] | 0.528 ± 0.015 | 0.533 ± 0.029
KKKKPAAEGAAK [TMA22 C-terminal 12 aa] | 0.696 ± 0.026 | 0.708 ± 0.043
GDDPYAEYFQDF [TPK2 C-terminal 12 aa] | 0.735 ± 0.01 | 0.717 ± 0.039
SLRGCKSVFRRI [HMI1 C-terminal 12 aa] | 0.663 ± 0.0076 | 0.741 ± 0.029
SQNGHTSGSENI [LSP1 C-terminal 12 aa] | 0.6941 ± 0.005 | 0.699 ± 0.03
DEELFLLSKSLR [SPC98 C-terminal 12 aa] | 0.724 ± 0.013 | 0.6784 ± 0.0026
LVICCQRCRRNC [YPL277C C-terminal 12 aa] | 0.69 ± 0.0082 | 0.552 ± 0.051
HTPSLKTWSTIK [FKS1 C-terminal 12 aa] | 0.7108 ± 0.0063 | 0.711 ± 0.019
NPPERAKVNARS [RCR1 C-terminal 12 aa] | 0.675 ± 0.017 | 0.68 ± 0.042
VIAQIDELFEGY [THG1 C-terminal 12 aa] | 0.726 ± 0.0083 | 0.711 ± 0.019
VSKLNGFSFTDI [ASE1 C-terminal 12 aa] | 0.669 ± 0.0088 | 0.674 ± 0.016
QGILMAKQYHIK [YSA1 C-terminal 12 aa] | 0.714 ± 0.018 | 0.702 ± 0.02
LEKDTRQDTKAN [MCO10 C-terminal 12 aa] | 0.693 ± 0.0045 | 0.671 ± 0.025
WLKDQIIGEMTV [CAL4 C-terminal 12 aa] | 0.696 ± 0.036 | 0.678 ± 0.025
TEFGITKENLGE [TOG1 C-terminal 12 aa] | 0.697 ± 0.03 | 0.691 ± 0.032

Sequence | protein stability index [1] | protein stability index (genetic background: wild type)
SRVYAYYLTHEK [NNT1 C-terminal 12 aa] | 0.666 ± 0.007 | 0.67 ± 0.018
ISPSKSITMVAE [YDR526C C-terminal 12 aa] | 0.689 ± 0.011 | 0.6363 ± 0.0024
DDECTYKMAKFK [YNL303W C-terminal 12 aa] | 0.68172 ± 0.00037 | 0.664 ± 0.035
TEIPYKPFTRQP [YOR293C-A C-terminal 12 aa] | 0.724 ± 0.0085 | 0.739 ± 0.013
LSIMKTLVPWTL [YML054C-A C-terminal 12 aa] | 0.712 ± 0.024 | 0.6528 ± 0.0022
GLDPEELEDLVT [PDS1 C-terminal 12 aa] | 0.688 ± 0.011 | 0.7032 ± 0.0028
TAREKKNEMFSF [YCL023C C-terminal 12 aa] | 0.69596 ± 0.00065 | 0.711 ± 0.06
VANTTNMNMNLM [DIA1 C-terminal 12 aa] | 0.6954 ± 0.0035 | 0.737 ± 0.027
NRPGKSRRARRF [EBP2 C-terminal 12 aa] | 0.694 ± 0.026 | 0.668 ± 0.016
KKVQSYTLQEDY [BUD13 C-terminal 12 aa] | 0.695 ± 0.015 | 0.692 ± 0.03
KFSTRMKLAHGK [SLX1 C-terminal 12 aa] | 0.698 ± 0.019 | 0.728 ± 0.021
GVSTGYEKIRYI [FUI1 C-terminal 12 aa] | 0.734 ± 0.012 | 0.31 ± 0.025
LIVVLLLLLLVL [SYN8 C-terminal 12 aa] | 0.446 ± 0.0069 | 0.545 ± 0.12
DIPSEEGTKVIL [BSC3 C-terminal 12 aa] | 0.701 ± 0.016 | 0.691 ± 0.011
NSAGLLTLEYLS [TFC6 C-terminal 12 aa] | 0.696 ± 0.012 | 0.719 ± 0.036
EAEQTKAPKIQI [TMC1 C-terminal 12 aa] | 0.6728 ± 0.0043 | 0.701 ± 0.012
PDLPSTIKPLAD [BCH2 C-terminal 12 aa] | 0.693 ± 0.018 | 0.693 ± 0.0094
DGIRQVDDFQAQ [PRE1 C-terminal 12 aa] | 0.701 ± 0.012 | 0.658 ± 0.0071
ESDLAAARSEDK [VTH1 C-terminal 12 aa] | 0.7237 ± 0.0031 | 0.659 ± 0.012
TMVERRVSFTAQ [YER119C-A C-terminal 12 aa] | 0.73 ± 0.031 | 0.711 ± 0.022
LLQHPWLDAHII [STE11 C-terminal 12 aa] | 0.722 ± 0.028 | 0.7253 ± 0.0019

Sequence | protein stability index [1] | protein stability index (genetic background: wild type)
ENLITILDSNYI [ISR1 C-terminal 12 aa] | 0.74 ± 0.0095 | 0.696 ± 0.01
VQLIDGPEEMHR [SHO1 C-terminal 12 aa] | 0.726 ± 0.009 | 0.663 ± 0.008
MKVLQLGFSWGG [IRC7 C-terminal 12 aa] | 0.7148 ± 0.0053 | 0.6814 ± 0.0067
VFLKKDTDIYIC [YML084W C-terminal 12 aa] | 0.63 ± 0.019 | 0.612 ± 0.03
YAEGSLVKTEKL [FAA2 C-terminal 12 aa] | 0.70242 ± 0.0001 | 0.698 ± 0.016
FIWQNVLMWLMG [YIF1 C-terminal 12 aa] | 0.7 ± 0.011 | 0.54 ± 0.017
LSCRKNLSAFAT [YOL085C C-terminal 12 aa] | 0.658 ± 0.018 | 0.666 ± 0.0096
VKHKVVSVDEDN [MPM1 C-terminal 12 aa] | 0.681 ± 0.014 | 0.6529 ± 0.001
RACPLRPKSLIA [YMR315W-A C-terminal 12 aa] | 0.655 ± 0.0078 | 0.667 ± 0.032
VNQKQPPPQSYV [YEL067C C-terminal 12 aa] | 0.7165 ± 0.00072 | 0.7048 ± 0.00045
FGKRRFFYRDLA [YPR146C C-terminal 12 aa] | 0.6901 ± 0.0029 | 0.693 ± 0.014
KSKFQERLQQGL [RET3 C-terminal 12 aa] | 0.701 ± 0.0071 | 0.6467 ± 0.0052
KYTGVYRSSWHG [YLR125W C-terminal 12 aa] | 0.701 ± 0.0013 | 0.6925 ± 0.0057
EKEALWKFAKRL [ATP10 C-terminal 12 aa] | 0.699 ± 0.032 | 0.3037 ± 0.00067
KQAIYTRATASE [RPS25A C-terminal 12 aa] | 0.693 ± 0.012 | 0.687 ± 0.0034
IGEWTISYTSLI [IPA1 C-terminal 12 aa] | 0.66 ± 0.015 | 0.669 ± 0.041
LCLLFFTFSLFF [GAS4 C-terminal 12 aa] | 0.3594 ± 0.0027 | 0.371 ± 0.016
DEGRNTSSVVNK [MAL31 C-terminal 12 aa] | 0.688 ± 0.0089 | 0.7419 ± 0.0019
EDAFLKDVFQQS [KGD1 C-terminal 12 aa] | 0.7394 ± 0.0043 | 0.782 ± 0.093
